# Source: patent US20020192796A1
# Target: HP1032 protein, sigma28 factor of RNA polymerase (FliA) of Helicobacter pylori (Helicobacter pylori strain 26695)
# Test: cell-based or functional assay
substance,measurement,value
"HP1122 protein, anti-sigma28 factor (FlgM) of Helicobacter pylori","flaA mRNA, RNA slot blot hybridization, HP1122-inactivated strain against wild type",2.5 fold
same,"fold decrease in flaA mRNA, RNA slot blot hybridization, HP1122-overexpressing N6 strain against wild type",2 fold
